In PMC6232179 (2018):

T1: His-tagged ER luminal domain of IRE1α (IRE1-NLD-His6-KDEL) (red fluorescent tag, covalently labelled (only in the MST of Figure 4C))
T1 chain: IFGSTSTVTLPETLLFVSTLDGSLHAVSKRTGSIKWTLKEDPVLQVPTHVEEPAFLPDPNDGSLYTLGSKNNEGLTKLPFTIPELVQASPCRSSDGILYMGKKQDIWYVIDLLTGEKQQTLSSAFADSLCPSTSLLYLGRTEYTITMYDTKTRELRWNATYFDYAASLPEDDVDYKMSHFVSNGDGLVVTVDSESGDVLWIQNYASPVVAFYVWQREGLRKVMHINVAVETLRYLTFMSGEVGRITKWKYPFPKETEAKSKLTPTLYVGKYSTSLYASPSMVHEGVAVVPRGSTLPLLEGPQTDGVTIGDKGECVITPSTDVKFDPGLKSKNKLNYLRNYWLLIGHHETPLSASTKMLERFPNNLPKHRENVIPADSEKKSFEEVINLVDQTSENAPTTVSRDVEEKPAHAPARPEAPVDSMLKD


Assays:
[1] = molecular target: T1, His-tagged ER luminal domain of IRE1α …; assay: SPR
[2] = molecular target: T1, His-tagged ER luminal domain of IRE1α …; assay: MST; COX-2 labelled
[3] = molecular target: T1, His-tagged ER luminal domain of IRE1α …; assay: MST; IRE1-NLD labelled

Kd [1] [nM]	Kd [2] [nM]	Kd [3] [nM]	Binder
3530			PDIA6 (protein) LYSSSDDVIELTPSNFNREVIQSDSLWLVEFYAPWCGHCQRLTPEWKKAATALKDVVKVGAVDADKHHSLGGQYGVQGFPTIKIFGSNKNRPEDYQGGRTGEAIVDAALSALRQLVKDRLGGRSGGYSSGKQGRSDSSSKKDVIELTDDSFDKNVLDSEDVWMVEFYAPWCGHCKNLEPEWAAAASEVKEQTKGKVKLAAVDATVNQVLASRYGIRGFPTIKIFQKGESPVDYDGGRTRSDIVSRALDLFSDNAPPPELLEIINEDIAKRTCEEHQLCVVAVLPHILDTGAAGRNSYLEVLLKLADKYKKKMWGWLWTEAGAQSELETALGIGGFGYPAMAAINARKMKFALLKGSFSEQGINEFLRELSFGRGSTAPVGGGAFPTIVEREPWDGRDGELPVEDDIDLSDVELDDLGKDEL
1660			BiP (protein) not shown
	138	155	COX-2 (prostaglandin endoperoxide synthase 2, PTGS2), purified His-tagged protein (enzyme, red fluorescent tag, covalently labelled (only in the MST of Figure 4B)) ANPCCSHPCQNRGVCMSVGFDQYKCDCTRTGFYGENCSTPEFLTRIKLFLKPTPNTVHYILTHFKGFWNVVNNIPFLRNAIMSYVLTSRSHLIDSPPTYNADYGYKSWEAFSNLSYYTRALPPVPDDCPTPLGVKGKKQLPDSNEIVEKLLLRRKFIPDPQGSNMMFAFFAQHFTHQFFKTDHKRGPAFTNGLGHGVDLNHIYGETLARQRKLRLFKDGKMKYQIIDGEMYPPTVKDTQAEMIYPPQVPEHLRFAVGQEVFGLVPGLMMYATIWLREHNRVCDVLKQEHPEWGDEQLFQTSRLILIGETIKIVIEDYVQHLSGYHFKLKFDPELLFNKQFQYQNRIAAEFNTLYHWHPLLPDTFQIHDQKYNYQQFIYNNSILLEHGITQFVESFTRQIAGRVAGGRNVPPAVQKVSQASIDQSRQMKYQSFNEYRKRFMLKPYESFEELTGEKEMSAELEALYGDIDAVELYPALLVEKPRPDAIFGETMVEVGAPFSLKGLMGNVICSPAYWKPSTFGGEVGFQIINTASIQSLICNNVKGCPFTSFSVPDPELIKTVTINASSSRSGLDDINPTVLLKERSTEL
